From the DeepSol protein solubility set

Assay: soluble on expression in E. coli; label from the status in PepcDB or PDB records

Sequence | soluble on expression in E. coli
MFSYHELITIESVARLGSFSQAADELHKVPSAISYTIKSVEDRLTVVLFTRLHRRVELTAAGTYFVDQARKLLKDMEEIRFNTQRVANGWQQSVSVALDNVVRENSVNQLVRDFYATFPDIELQLTMEVFNGVWDALMTGRADIGIGATATIPIGGDFSYRPMGELAWDFIVSINHPLASFEHDIPNEELVKYPAICLEDTSQILPKRSTWLLDNQRRLIVPNWHSAEQCFIDGLGVGVIPNHRAKRLLETGQVISKKIEHHIAPSPCCLAWNNNNQSVAIQWLLDYLGDSDKLNSEWLKEF | not soluble
MSLTENKGTPEVGWSFDTRYTDLPSMMFSNVEPEPVEAPKLVILNDSLAQSLGLDPVALQHQNSIAVLAGNEVPKGAAPLAQAYAGHQFGHFTMLGDGRAILLGEQITPNGERFDIQLKGSGRTPYSRQGDGRAALGPMLREYIISEAMHALGIPTTRSLAVVTTGESVFRETVLPGAILTRVAASHIRVGTFQFVANAGSEEELKALADYTLARHFPEVEADRENRYLALLQKVIKRQAELIAKWQLVGFIHGVMNTDNMTISGETIDYGPCAFMDVYDPETVFSSIDTRGRYAYGNQPRIGAWNLARFAEALLPLLADDQDEAIKLAEAEISNYAEQFEHHWLNGMRAKLGLFNEESEDLSLIKDLLEVMHKHKADFTNTFRALTFDEQEETGLHDKLEFTEWHERWQARLGRQEQTKDDSHNLMKMSNPAVIPRNHRVEEALEAAVEQEDYQVMERLLKVLANPFAHSPEQKAYAKLPAPCAIPYRTYCGTEGHHHHHH | not soluble
MAHHHHHHMMQPHSQTRAFYCCDDEDKEGTDELLGELLFGADGRRGTDLSSTRCPPPAAPPASLDIAAPASAAATGSGAELPRLRYSRPPPHLTQTTLDLGHAEPTMATRCLLCRMLYSPENDEDAALHRRFCRGGRLRRRDRGPYDAPSSFTGACRSRRARTETAASPLASLSSPAAVAVHMLEELNGAGLGHSPSPLVANTTATVRRGGPRRRESGARGVAKATYTATDTLNTAADATVSLCTCVLRPRSSSSSSPHLSSPLAVFRISLNACGVADSKGGCTALRLLELLDFTPVVLRAAAERDVAPQTASSSVLCGNVPVVPSVRDSAASTVHVVCVVDTVLRLLLCAVVGEPRSREQDPELCVERRADGATVCSTRRNFTHGDVAGLWVLSPAELSAAQTAWEKSTAAPFASTRQALEVFFGTRAGGGAPSSAQSHAAHVTEKAHERCQQAAGVALHALAQYLVYGSSLCPSRQLSYSQAALAAAERMGAGFMEQCLAVASSCYLAGATPTPREDVGELQPLYIHGDSDDGGSDSDDANEDAKGVIGE | not soluble
MHSGAYFFYAAPRAGTAGKQAMPIEGIDYRLVFASDVNPRDGLGLECWRGEQPLFEVFRDDVGRRFVVNLFASDVPLELLEAIIPTARRELGDFPRRSASRGVAKPG | soluble
MKNNAIGSNWKDVRAELFSKEEILESDMRVAIMSELIEARNEKGISQKKLEEMSGVSQPVIARMETGKTSPQLDTVLKVLASLGKTLAVVPLEHEQV | not soluble
MFSSAHSGLLEKLFHYIDLHQDEFVQTLKEWVAIESDSVQPVPRLRQKLFQMMALAADKLRNLGAGVESIDLGSQQMPDGQSLPIPPILLAELGSDPEKPTVCFYGHLDVQPAQKDDGWLTDPYTLTEVDGKLYGRGATDNKGPVLAWINAVSTFRALQQDLPVNIKLILEGMEEAGSIALEELVMREKDHFFSSVDYIVISDNLWLSQRKPALTYGTRGNCYFTVEVKCRDQDFHSGTFGGILNEPMADLVALLGSLVDSSGHILIPGIYDQMAPITEGEKTMYKNIDMDLEEYQNINQVEKFLFDTKEELLMHLWRYPSLSIHGIEGAFDEPGTKTVIPGRVLGKFSIRLVPTMSPSVVEKQVTQHLEAVFSKRNSFNKMAVSMVLGLHPWTANVNDTQYLAAQRTIKTVFGVNPDMIRDGSTIPIAKIFQAITQKSVMMLPLGAVDDGEHSQNEKINRWNYIQGSKLFAAFFLELSKQHSGHQMPSSVY | not soluble
MNWNKRLLDTPIIGDITKKIVSAKASREAHNISDHFTQFLQPCVAVSQTLKEEAFKIRHNVYCEELAFEEVRDNGQETDEFDHQSMFSLIKHKPSGTFTSCVRLVTSSGPDELLPIEKYCMGSITNEELSPKRFNRNEIAEISRLAVKSDFRRRKADNYKGSGTGVISEITYSETELRCFPFIAIGLYMAAATMSMNTGIRHVYVMMEPRLARSMKFIGINFQQLGPPVDYHGLRAPYYINPEIFMKNLSPGFKSLFSIIEEDICSQLNQLDLA | not soluble
SYFSIFSPSFTSLRHDGKPVQCSGLDMQFDPSEPGFYDDPDLSYSIEKPITKWDEKRNQWFESHPSFKPGSENRIVMVTGSQSSPCKNPIGDHLLLRCFKNKVDYARIHGHDIFYSNSLLHPKMNSYWAKLPVVKAAMLAHPEAEWIWWVDSDAIFTDMEFKPPLHRYRQHNLVVHGWPNIIYEKQSWTALNAGVFLIRNCQWSMDLIDTWKSMGPVSPDYKKWGPIQRSIFKDKLFPESDDQTALIYLLYKHKELYYPKIYLEAEYYLQGYWIGVFGDFANVTERYLEMEREDDTLRRRHAEKVSERYGAFREERFLKGEFGGRGSRRRAFITHFTGCQPCSGDHNPSYDGDTCWNEMTRALNFADNQVMRVYGYVHSDLSKTSPLQPLPFDYPNEAW | soluble
MAHHHHHHMPKIRPGMKRPPPGFEKINDKLDEYDAEMRLALSEDPSQAELPVPSKRKDKQNKVEATKDKHAQSVQRGDGGVAGHSDGELDKPEPPLWRVARINRERTRYVFNACFRERIIAEEVLDYCCEMNFIDAGLVRRWSLAGYERLCCNTCCLPGAASEAARMVNKFANRDKKDRRTNGNDDTGGTCICRVPDEKRLAKAFTRCMVCGCSGCGSGGKRKHDTEEKDSVSDMKKVRTDDYEVKSGK | not soluble
MKTFSDRWRQLDWDDIRLRINGKTAADVERALNASQLTRDDMMALLSPAASGYLEQLAQRAQRLTRQRFGNTVSFYVPLYLSNLCANDCTYCGFSMSNRIKRKTLDEADIARESAAIREMGFEHLLLVTGEHQAKVGMDYFRRHLPALREQFSSLQMEVQPLAETEYAELKQLGLDGVMVYQETYHEATYARHHLKGKKQDFFWRLETPDRLGRAGIDKIGLGALIGLSDNWRVDSYMVAEHLLWLQQHYWQSRYSVSFPRLRPCTGGIEPASIMDERQLVQTICAFRLLAPEIELSLSTRESPWFRDRVIPLAINNVSAFSKTQPGGYADNHPELEQFSPHDDRRPEAVAAALTAQGLQPVWKDWDSYLGRASQRL | not soluble
MATVQVDIVTPERKVFQGEADIVIARGVEGELGVMAGHIPLVTPLKTAPVRIKQGDKETLIAVSGGFLEVRPDKVNILADTAELPEEIDVERAKKAKARHETILKRLDKTDKDYLRHKRALERAEVRLQVANSKS | soluble
MDCVVGRKNSAAVLLVLSERKTREEIILKLPDKTQESVIKAIDELERKYRRKFREKFKTITVDNGTEFLDYRGIEKSKTEPGKDRTKVYYAHPYSSWERGTNENINKLIRRFIPKGTDISKVSKAKIKSIERWINEYPRRMFGYRSAIEMAV | soluble
FINQKKVEESELIENKTYGVLITKAGNYHKFESNQLLKSTTDFKSESDTIIFAQTIANTDQIFIVTSLGNIINIPVYKLAFNSKNKLASLVSKKPILLEYETIVFVGTMN | not soluble
MSLNMLVINGTPRKHGRTRIAASYIAALYHTDLIDLSEFVLPVFNGEAEQSELLKVQELKQRVTKADAIVLLSPEYHSGMSGALKNALDFLSSEQFKYKPVALLAVAGGGKGGINALNNMRTVMRGVYANVIPKQLVLDPVHIDVENATVAENIKESIKELVEELSMFAKAGNPGVEGGSHHHHHH | soluble
MGSDKIHHHHHHMLLPNTRLIAAEQLLSPVDAARNRRLADTALTTAKSAGASYCDVRVGRYLRQFVITREAQVENVVNAESSGVGVRVLADGAWGFAATNTLTSDGVATATRQAVAIAKANARLGGTPVQLAPVTPAGQVSWKTPIKKNAMEVPLQDKVALLMDVNAAALNAGATFVASRMFAINEQKYFASSDGSYIDQDVHRLWLPFTVTAVDKASGKFRTRDGLSSPMGMGYEYLDGAAGEKHRLPGGLIGYGRSYDAREDAIAAAKQAREKLTAPSVKAGKYDLVIDPSNLFLTIHESVGHPLELDRVLGYEANYAGTSFATLDKRDAGYRWGSDAVTFVADKTQPGSLGAVGYDDEGVKTKQWDLVKDGILVDYQCTRDQAHLLGKTASDGCSYADSWSNVQFQRMPNVSLAPGRTPLAVADMIKNVERGLYIHGRGSYSIDQQRYNAQFGGQLFYEIENGQVTRLVEDGAYQIRTPEFWNACSAVCDQRDFRLGGSFFDGKGQPSQVSAVSHGSSTARFDGINVINTARSLG | not soluble
MIALHFGAGNIGRGFIGALLHHSGYDVVFADVNETMVSLLNEKKEYTVELAEEGRSSEIIGPVSAINSGSQTEELYRLMNEAALITTAVGPNVLKLIAPSIAEGLRRRNTANTLNIIACENMIGGSSFLKKEIYSHLTEAEQKSVSETLGFPNSAVDRIVPIQHHEDPLKVSVEPFFEWVIDESGFKGKTPVINGALFVDDLTPYIERKLFTVNTGHAVTAYVGYQRGLKTVKEAIDHPEIRRVVHSALLETGDYLVKSYGFKQTEHEQYIKNQRSLLKSFHFGRCDPRSEVTSQKTGRKCRLVGPAKKIKEPNALAEGIAAALRFDFTGDPEAVELQALIEEKDTAAYFK | not soluble
MIEGHGDDSYKYRHPIRSNFSSNVYNKVNLDGLRAHLCGRISAISAYPEPEPYTLEARLADRHALPAASVCVTNGATEAIYLIAQTFRGTNTAILMPTFSEYADACRMHGHKVTSLYTLDAVPEDVRMVWLCNPNNPTGEVRDKKYLTELIAKHPRVCFVIDQSYEYFTLKELFTAQEAAGFPNVILLHSMTKRYAIPGLRLGYVTAHPGLIGRLRTNRMPWSVNQLAIEAGLYLLSEGIPAGLSMKDYLAECARLKSSLEAIGGLEVWPTDTHFMLVCLRFGKAAALKEYLAREEGILIRDASNFEGLDERFFRIATQTPEENDELVGAIAKWMAE | not soluble
MVMIMRICIQPVGDVNDEILKFLKKKFGEVFGMCEILPKIDIPIYAYNFSRGQFNSTLILKSLPTVEDIVLGVTEVDIYADNLNFVFGEAELFGKRALISLARLRPEFYGLPPNKDVLKIRALKEAIHEIGHVLGLIHCENKRCVMSFSNSIIDVDLKDWRYCKKCLKKLQDRGIYISILEHHHHHH | not soluble
MKEHHIPKNSIITVAGTVGVGKSTLTKTLAKRLGFKTSLEEVDHNPYLEKFYHDFERWSFHLQIYFLAERFKEQKTIFEAGGGFVQDRSIYEDTGIFAKMHADKGTMSKVDYKTYTSLFEAMVMTPYFPHPDVLIYLEGDLENILNRIEQRGREMELQTSRSYWEEMHTRYENWISGFNACPVLKLRIEDYDLLNDENSIENIVDQIASVIHDNQKKLEHHHHHH | not soluble
MSFRLRIDDSVTADHVVCWGVTVALLKKSLFGSTPEERKRRVEEKISQAVVELGLEGLSDEFRVSMLSAWVRYYVFRVDAGEKTFVLNVLSPNSPVKSFRDILDPLRGLFEKFRENIAVPVAYTDEFMLQEWINGLPLSELRDGDVMRSDEKSRRIIEESIYLTARLLYRLWKEGFVYSPWEDYEAMYCDGKIVLLDVTRFEKKPSNESFLQHYYGAPFCPPDVLKDPKSPVNRLYFRGTSERDYFGVEREKYEELFLKGIRDECGSEQEFKILLGDCEAVERIKRV | not soluble
MDILLTLLDDKTSVASDWRILGIISLRGSTPRLAILLQVVQWAAFYCWRNYMSPYKDKRWRSKRDTALRRDKYECRNCKRFGITTTATVVHHVWFLRDYPKWWLCLWNLISLCEKCHNKMHNRDSDIPTELGEYWQDKIKPPTSATKKYFLEHHHHHH | not soluble
